Assay results taken from US20240124575A1 (SIMCERE ZAIMING PHARMACEUTICAL, published 2024).

What was measured:
[1] = target: T1, human CD33-His (extracellular domain Asp 18-His 259) (human, UniProt P20138 18-259); assay: ELISA, antigen coated
T1 construct: range 18-259; bought protein; also called hCD33-his; human CD33 protein; not shown: His tag
Protocol: (§1) In order to assay the binding activity of VHH-Fc to human CD33 protein, a human CD33-his protein (purchased from ACROBiosystems, Cat. No. CD3-H5226) was diluted with PBS to make a final concentration of 2 μg/mL, and then added into a 96-well ELISA plate at 100 μL/well. The plate was sealed with a plastic film and incubated at 4° C. overnight, washed twice with PBS the next day, and a blocking solution [PBS+2% (w/w) BSA] was added for blocking at room temperature for 2 h. The blocking solution was discarded, and VHH-Fc antibody or negative control antibody serially diluted from 100 nM was added at 50 μL/well. After incubation at 37° C. for 2 h, the plate was washed 3 times with PBS. A secondary antibody labeled with HRP (horseradish peroxidase) (purchased from Sigma, Cat. No. A0170) was added. After incubation for 1 h at 37° C., the plate was washed 5 times with PBS. A TMB substrate was added at 50 μL/well. After incubation at room temperature for 10 min, a stop solution (1.0 N HCl) was added at 50 μL/well. The OD450 nm values were read on an ELISA plate reader (Multimode Plate Reader, EnSight, purchased from Perkin Elmer). The assay results for the binding of the VHH-Fc to hCD33-his by ELISA are shown in FIGS. 7A and 7B and Tables 11 and 12. […] The IgG control was hIgG1, and the data in the table are OD450 nm values.

[2] = target: T2, human CD33-C2-his (human, UniProt P20138 136-260); assay: ELISA on coated human CD33-C2-his
T2 construct: expressed in HEK293E; also called hCD33-C2-his; human CD33 protein C2-domain; not shown: His tag
From the text: Plates were coated with human CD33-V-his (membrane distal end) and human CD33-C2-his (membrane proximal end), respectively, according to the ELISA method in Example 8. The VHH humanized antibodies were classified based on the membrane distal end and the membrane proximal end, as shown in FIGS. 20A-20J and Table 44, which allowed the classification of the VHH humanized antibodies into the following classes: […]

[3] = target: T3, human CD33-his protein (human, UniProt P20138 18-259); assay: competition ELISA, coated human CD33-his, vs Biotin-C33B904 at EC80; antibody 125.00 nM
T3 construct: range 18-259; bought protein; also called hCD33-his; recombinant human CD33-his; not shown: His tag
Protocol: ELISA plates were coated with 2 μg/mL human CD33-his protein according to the method in Example 5.1; the Biotin-C331B904 antibody was subjected to a gradient dilution from 15 μg/mL, and EC80 values (0.18 μg/mL) were calculated. ELISA plates were coated with 2 μg/mL human CD33-his protein; starting from 40 μg/mL, the VHH antibodies to be tested were diluted in a 1:2 dilution ratio to obtain seven concentrations and added to the ELISA plates, and then Biotin-C331904 antibodies with the EC80 concentrations were added for incubation for 2 h. The plates were washed 5 times with PBS and then […] (purchased from Sigma, Cat. No. S2438) were added for incubation for 1 h, and the plates were washed 5 times. A TMB substrate was added at 50 μL/well and incubated at room temperature for 10 min, then a stop solution (1.0 M HCl) was added at 50 μL/well. OD_{450 nm} values were read using an ELISA plate reader (Insight, purchased from PerkinElmer). Then, analysis was performed by software (GraphPad Prism8), and data were fitted for curve plotting. The results are shown in FIGS. 13A-13B and Tables 28 and 29.

[4] = target: T3, human CD33-his protein; assay: competition ELISA, coated human CD33-his, vs Biotin-C33B904 at EC80; antibody 15.63 nM
Protocol: as §1, with “The” for “In order to assay the binding activity of VHH-Fc to human CD33 protein, a human CD33-his protein (purchased from ACROBiosystems, Cat. No. CD3-H5226) was diluted with PBS to make a final concentration of 2 μg/mL, and then added into a 96-well ELISA plate at 100 μL/well. The”
ELISA plates were coated with 2 μg/mL human CD33-his protein according to the method in Example 5.1; the Biotin-C331B904 antibody was subjected to a gradient dilution from 15 μg/mL, and EC80 values (0.18 μg/mL) were calculated. […] OD_{450 nm} values were read using an ELISA plate reader (Insight, purchased from PerkinElmer). […]

[5] = target: T3, human CD33-his protein; assay: SPR (Biacore), antibody captured on Protein A chip, human CD33-his analyte
Protocol: The sample and running buffer was HBS-EP+ (10 mM HEPES, 150 mM NaCl, 3 mM EDTA, 0.05% surfactant P20) (GE Healthcare; BR-1006-69). The flow cell was set at 25° C. The sample block was set at 16° C. Both were pretreated with the running buffer. In each cycle, first, the antibody to be tested was captured using the Protein A chip, and then a single concentration of CD33 antigen protein was injected. The association and dissociation processes of the antibody with the antigen protein were recorded, and finally, the chip was regenerated using Glycine pH 1.5 (GE Healthcare; BR-1003-54). The association was determined by injecting different concentrations of recombinant human CD33-his in the solution and maintaining for 240 s, wherein the flow rate was 30 μL/min, and the protein was diluted in a 1:1 dilution ratio from 200 nM to obtain 5 concentrations in total. The dissociation phase was monitored for up to 600 s and triggered by switching from the sample solution to the running buffer. The surface was regenerated by washing with 10 mM glycine solution (pH 1.5) at a flow rate of 30 μL/min for 30 s. The difference in bulk refractive index was corrected by subtracting the responses obtained from the […]. Blank injections were also subtracted (=double reference). To calculate the apparent KD and other kinetic parameters, the Langmuir 1:1 model was used.

T3 sequence (P20138 18-259 limits assumed): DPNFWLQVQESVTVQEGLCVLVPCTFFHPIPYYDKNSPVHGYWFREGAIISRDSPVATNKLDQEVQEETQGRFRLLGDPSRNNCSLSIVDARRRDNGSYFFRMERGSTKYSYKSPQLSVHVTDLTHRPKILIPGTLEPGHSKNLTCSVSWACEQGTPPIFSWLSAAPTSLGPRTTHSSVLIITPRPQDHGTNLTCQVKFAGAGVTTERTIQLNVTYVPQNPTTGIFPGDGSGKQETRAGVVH
T1 sequence (P20138 18-259 limits assumed): as above
T2 sequence (P20138 other isoform, or with tags, fused parts or gaps limits assumed): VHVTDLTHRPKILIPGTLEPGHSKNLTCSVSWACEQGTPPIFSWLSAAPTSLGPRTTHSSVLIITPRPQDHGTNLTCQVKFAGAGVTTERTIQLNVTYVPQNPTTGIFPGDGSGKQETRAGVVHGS

Binder | OD450 at 0.0001 nM [1] [OD450] | OD450 at 0.001 nM [1] [OD450] | OD450 at 0.01 nM [1] [OD450] | OD450 at 0.1 nM [1] [OD450] | OD450 at 1 nM [1] [OD450] | OD450 at 10 nM [1] [OD450] | OD450 at 100 nM [1] [OD450] | EC50 (read off the curve) [2] [nM] | OD450 (Biotin-C33B904 signal) [3] | OD450 (Biotin-C33B904 signal) [4] | Kd [5] [nM] | koff [5] [s⁻¹] | kon [5] [M⁻¹ s⁻¹]
C33B904 hIgG1 (antibody, V domains shown, intact human IgG1; variable regions from US20190382481A1; also called C33B3904; C331B904) VH: EVQLVESGGGLVQPGRSLRLSCAASGFTFDDYAMHWVRQAPGKGLEWVSGIGWSGGSIVYADSVKGRFTISRDNAKNSLYLQMNSLRAEDTALYYCAKDSPYGDFFDYWGQGTLVTVSS VL: DIVMTQSPDSLAVSLGERATINCKSSQTVFYSSNNKNYLAWYQQKPGQPPKLLISWASTRKSGVPDRFSGSGSGTDFTLTVSSLQAEDVAVYYCQHYYSTPYTFGQGTKLEIKR | 0.04 | 0.06 | 0.08 | 0.28 | 1.39 | 2.6 | 2.96 | ~0.2 |  |  |  |  | 
C33B904 (antibody, human IgG1, kappa, V domains shown, control antibody, intact human IgG1 form; variable regions from US20190382481A1; also called C33B904 hIgG1; C331B904) VH: EVQLVESGGGLVQPGRSLRLSCAASGFTFDDYAMHWVRQAPGKGLEWVSGIGWSGGSIVYADSVKGRFTISRDNAKNSLYLQMNSLRAEDTALYYCAKDSPYGDFFDYWGQGTLVTVSS VL: DIVMTQSPDSLAVSLGERATINCKSSQTVFYSSNNKNYLAWYQQKPGQPPKLLISWASTRKSGVPDRFSGSGSGTDFTLTVSSLQAEDVAVYYCQHYYSTPYTFGQGTKLEIKR |  |  |  |  |  |  |  |  | 0.13 | 1.03 | 0.079 | 6.54e-05 | 828000
